Test results reported in US20230399361A1, “MACROCYCLIC PEPTIDES” (UNIVERSITY OF NOTRE DAME DU LAC, priority 2022, published 2023).
*1 amine or outer side, *2 acyl side, *3 side chain or, on linkers, in order; H or OH if unused. Where a SMILES comes first, the peptide text is derived from it. Primed or numbered codes have the meaning given here. [ ]: non-standard residue; d: D form. aTyr = Tyr with an NH2 on the backbone amide nitrogen (N-amino residue), NN([C@@H](Cc1ccc(O[*:3])cc1)C(=O)[*:2])[*:1]; aIle″ = Ile with an NH2 on the backbone amide nitrogen (N-amino residue), CC[C@H](C)[C@@H](C(=O)[*:2])N(N)[*:1]; aVal″ = Val with an NH2 on the backbone amide nitrogen (N-amino residue), CC(C)[C@@H](C(=O)[*:2])N(N)[*:1]; N(NH2)Lys = NCCCC[C@H](NN)C(=O)O

Tests used:
[1] = Human serum stability assay; details: after 24 h, 37° C., HPLC
Protocol: Human Serum Stability Assay. The stability of NAPs in 25% human serum (MilliporeSigma) was assessed by HPLC. The reaction was started by adding NAPs at a final concentration of 500 μM in pre-warmed serum. The mixture was incubated at 37° C. for 24 h. A 100 μL aliquot of the reaction mixture was taken out at 0, 1, 4, and 24 h and was mixed with an equal volume of 20% trichloroacetic acid and incubated at 4° C. for 15 min to precipitate serum proteins. After centrifugation at 12,000 rpm for 10 min, the supernatant was collected and mixed with an internal standard (1 mg/mL Cbz-Tyr-OH dissolved in MeCN) and stored at −20° C. Samples were then analyzed by LC-MS, and the percentage of peptide remaining was calculated by integrating peaks.

AcPHF6 = biological target: T1, AcPHF6 (Homo sapiens, UniProt P10636); details: Chem. Eur. J. 2017, 23, 9618; cited from earlier work
T1 construct: AcPHF6; Ac-Val-Gln-Ile-Val-Tyr-Lys-NH2; 790.4833

tauP301L [2] = biological target: T2, tauP301L (Homo sapiens, UniProt P10636, P618L); assay: Transmission electron microscopy of heparin-induced tauP301L fibrils; assay type: biochemical; details: 10 μM tauP301L + heparin, 20 μM NAP (2-fold molar excess), 96 h
T2 construct: we expressed and purified full-length tau featuring a P301L mutation; His6 (N); made in house; host or cells: E. coli BL21 (DE3)
T2 sequence (P10636 1-383 isoform P10636-6 P243L): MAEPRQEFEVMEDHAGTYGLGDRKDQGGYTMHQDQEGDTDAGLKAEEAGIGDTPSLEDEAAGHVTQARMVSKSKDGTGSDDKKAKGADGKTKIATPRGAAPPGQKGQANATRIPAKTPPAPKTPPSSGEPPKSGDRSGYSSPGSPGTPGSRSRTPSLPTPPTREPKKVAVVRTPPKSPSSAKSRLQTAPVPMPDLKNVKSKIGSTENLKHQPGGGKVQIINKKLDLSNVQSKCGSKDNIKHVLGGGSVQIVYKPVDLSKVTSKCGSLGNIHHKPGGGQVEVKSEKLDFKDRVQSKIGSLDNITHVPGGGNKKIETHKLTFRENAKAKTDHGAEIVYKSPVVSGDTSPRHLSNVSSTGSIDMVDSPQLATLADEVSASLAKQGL
Protocol: This is consistent with previous reports showing that the endpoint ThT fluorescence and fibrilization lag time for full-length tau are particularly resistant to perturbation by inhibitors. […] To confirm the effect of NAPs on the growth of mature tau fibrils, we used transmission electron microscopy (TEM) to visualize the morphology and maturity of fibrillar species. Heparin-induced tauP301L fibrils were allowed to grow over 96 h in the presence or absence of inhibitors. Untreated tauP301L afforded large, helical, and amyloid-like filamentous fibrils.
Inhibition of full-length tau fibrilization by mxyl-NAPs in TEM. To confirm the results from ThT assays, we used TEM to visualize tauP301L fibrils in the absence or presence of synthesized NAPs. As expected, heparin-induced tauP301L formed dense networks of mature fibrils (FIG. 8).
Transmission Electron Microscopy. For analyzing fibrils by TEM, aggregation was carried out under conditions similar to the assay performed above but with ThT excluded and a final reaction volume of 100 μL. Samples were incubated in a microcentrifuge tube for 4 days at 37° C. with a mixing speed of 100 rpm. A 10 μL aliquot of the sample was then applied to 400-meshed formvar-/carbon-coated copper grids and negative-stained with 2% uranyl acetate. Micrographs were obtained on a JEOL 2011 transmission electron microscope at 200 kV.

tauP301L [3] = biological target: T2, tauP301L; assay: ThT fluorescence aggregation assay of recombinant tauP301L; assay type: biochemical; details: 20 μM NAP (2-fold molar excess), 10 μM tauP301L, heparin, 48 h
Source text: (§1) NAP Tau Mimics Inhibit Tau Fibrilization In Vitro. We chose thioflavin T (ThT), an amyloid specific fluorescent dye that binds to β-sheet assemblies, to first evaluate the effect of NAPs on recombinant tau aggregation. For these studies, we expressed and purified full-length tau featuring a P301L mutation frequently observed in patients with frontotemporal dementia and Parkinsonism linked to chromosome 17 (FTDP-17). This missense mutation leads to local structure destabilization around the amyloid-forming region resulting in faster aggregation. Recombinant tauP301L aggregated in the presence of equimolar heparin sulfate (t1/2=6.5±0.4 h) starting with a very short 0.5 h lag phase, followed by a 24 h exponential growth phase. […] Compounds 2 and 4 are mono- and diaminated hexapeptides derived from the R2 PHF6* aggregation-prone sequence, whereas compounds 5, 6, 12, and 13 are all derived from the R3 PHF6 sequence. Several other NAPs had no effect on endpoint ThT fluorescence or lacked consistent inhibition across repeated experiments. […] NaOAc buffer, as evidenced by intense ThT fluorescence after 48 h (FIG. 1B).
Inhibition of full-length tau aggregation by mxyl-NAPs in a ThT assay. […] TauP301L ([…]) aggregated upon incubation with heparin over the course of 2 days, leading to high ThT fluorescence. […] We also synthesized linear and scrambled controls corresponding to each of the NAP inhibitors.
ThT Fluorescence Aggregation Assay. Recombinant tauP301L (10 μM final concentration) and NAP inhibitors (20 μM final concentration) were mixed in an aggregation buffer (100 mM sodium acetate, 10 μM ThT, 10 μM heparin, 2 mM DTT, and 0.5% DMSO, pH: 7.4) in a 96-well clear bottom black plate with a final reaction volume of 200 μL. The plate was then sealed with a clear sealing film and allowed to incubate at 37° C. with continuous shaking in a Biotek Synergy H1 microplate reader. An automated method was used to carry out ThT fluorescence measurements at an excitation wavelength of 444 nm and an emission wavelength of 485 nm at an interval of every 5 min for 48 h. Experiments were carried out in technical replicates on at least 2 different days. Every experiment included control wells that lacked tauP301L, heparin, or NAPs. The average signal from control wells lacking tau was used to subtract the background fluorescence, and the average of the first and last 10 data points of tau+heparin (no inhibitor) wells, after blank subtraction, was used to normalize the data. All data plots were generated with SigmaPlot.

[4] = Self-aggregation of peptides alone by ThT fluorescence; assay type: physicochemical; details: incubated alone in aq. NaOAc buffer, 48 h
Source text: as §1
Design and synthesis of aggregation-resistant backbone-aminated derivatives of mxyl-AD. The data above support the hypothesis that mxyl-AD mimetic macrocycle can engage in native-like hydrophobic cross-b interactions as well as edge-to-edge H-bonds along the fibril axis. We next sought to employ mxyl-AD as a template for the design of tau seeding inhibitors that could potentially cap fibril growth and block propagation. This required us to incorporate a chemical modification onto mxyl-AD that would preclude its ability to self-assemble without disrupting its capacity to adopt the conformation required to bind tau. We therefore designed two backbone N-amino peptide (NAP) derivatives of our tau mimic, mxyl-NAP1 and mxyl-NAP2 (Scheme 1). Each of these analogues features a backbone amide substitution that precludes canonical b-sheet H-bonding along one edge of the macrocycle, while leaving the other edge intact to engage the tau protein. […] Both mxyl-NAP1 and mxyl-NAP2, which feature a single backbone N-amino group within the amyloidogenic PHF6 module, were prepared on solid support starting from Fmoc-protected N-amino dipeptides.

[5] = biological target: Human tauP301L (0N4R) with an N-terminal His6 tag (human), P10636; assay: cell-based or functional assay
Chain of Human tauP301L (0N4R) with an N-terminal His6 tag (human), P10636 (P10636 other isoform, or with tags, fused parts or gaps): as the sequence (P10636 1-383 isoform P10636-6 P243L) above, with L243P counted along it

Row | Molecule | tauP301L fibril morphology by TEM (tauP301L [2]) | endpoint ThT fluorescence of tauP301L (tauP301L [3]) | self-aggregation, ThT fluorescence of peptide alone [4] | also measured
1 | CC[C@H](C)[C@H](NC(=O)[C@@H](N)CC(C)C)C(=O)N[C@H](C(=O)N[C@@H](CCCNC(=N)N)C(=O)N[C@@H](CC(C)C)C(=O)N[C@@H](CCC(=O)O)C(=O)N[C@@H](CC(N)=O)C(=O)N[C@H](C(N)=O)[C@@H](C)O)[C@@H](C)O [H-LITRLENT-NH2] (H-LITRLENT-NH2) |  |  |  | intact peptide in 25% human serum [1]: rapidly degraded
2 | Ac-VPIVYK-NH2 [proline-containing analogue of PHF6 from the literature (Segal and co-workers)] |  |  |  | aggregation of AcPHF6 in vitro (AcPHF6): inhibits the aggregation
3 | Ac-Val-Gln-aIle-Ile-Asn-Lys-NH2 (Ac-VQ[aIle″]INK-NH2) [Compound 2] | short, immature rod-like fibrils | significantly reduce | no such fluorescence | 
4 | Ac-Val-Gln-aIle-Val-Tyr-Lys-NH2 (Ac-VQ[aIle″]VYK-NH2) [Compound 6] | short, immature rod-like fibrils | significantly reduce | no such fluorescence | 
5 | Ac-aVal-Gln-Ile-Val-Tyr-Lys-NH2 (Ac-[aVal″]QIVYK-NH2) [Compound 5] | short, immature rod-like fibrils | significantly reduce | no such fluorescence | 
6 | Ac-VQI[aVal″]Y[N(NH2)Lys]-NH2 [Ac-Val-Gln-Ile-aVal-Tyr-aLys-NH2 (13)] |  |  |  | fibril capping IC50 in cells (seeding of tau-RD(LM)-YFP in HEK293 biosensor cells by pre-formed tauP301L fibrils) [5]: 5 µM
7 | Ac-VQ[aIle″]V[aTyr]K-NH2 [Ac-Val-Gln-aIle-Val-aTyr-Lys-NH2 (12)] |  |  |  | fibril capping IC50 in cells (seeding of tau-RD(LM)-YFP in HEK293 biosensor cells by pre-formed tauP301L fibrils) [5]: 5 µM
